Measurements as given in patent publication US8961929B2, “Targeting agent for tumor site” (FUJIFILM Corporation, priority 2010, dated 2015).

Test: Isoelectric point of gelatin
Format: physicochemical
Conditions: recombinant gelatin CBE3

For “CBE3: recombinant gelatin, SEQ ID NO: 1, Gly-Ala-Pro[(Gly-X-Y)63]3Gly, 571 amino acids, 12 RGD sequences”, which Isoelectric point is on record?
The Isoelectric point was 9.34.
